# Reference: the DeepSol protein solubility set
# Test: soluble on expression in E. coli; label from the status in PepcDB or PDB records
row,Sequence,soluble on expression in E. coli
1,MGSDKIHHHHHHMRPTENGVLHLRKKFVASLLAVAIASTTACAQLGISKEQAGTVIGGLAGVAIGSTMGSGNGKIAAALIAGGIGAYVGNRIGHMLDEKDQQALALRTQEVLSQQQTTASAQPVTWKSDHSGATAQIVPGKEYTKTKQVEVKRAPKIQAVPSMKLINEPYVTISDNLNVRAAPNQAGEKVGSLKNHTEFTAVGSTGDWILVGRKGVTVGYVHKNYVEPKAQAVAKRVTPAVNLDELDVAASKETQGFDLDSVQSLPTQTVAAEAACRPVTVSLKSQSGQTEQEQNTFCKQANGTWELI,not soluble
2,MNKHTTLPNLMQKIVSDEDLQSIIEAVGYHDTSRTFTVRTLVDFFLLAALHEWKSFRHGADVAKMYGLPTFHYSTVSKKAKEVPYEVMKRLFALVVSKCNRQTRRSLRFPKALRVVDSTTVTVGKNRLAWAPYHGERSGVKMHVAYSPEQQMPSDIVETVGLRHDGPVGEQLTDAQSVLVEDRAYFKIERIARFVEQKPPFVFG,not soluble
3,MAHHHHHHMVLRPRPLKHSLLRRGRINPAATHREVSLPILLTLVTCPIPRPMQVDRSLWAEGPLQAQHPHSPTHLSRQQVECMLLAGVPPRAFRLQDKPSKVSETAKEAPQGDEEGEPRAQHEADHTTKGGGDDFLDKNGNEKREPPAGSQTAPLPDGGKNAHYYFFLLLPARPATRCHLSADEVVEQRQKFSAMKQLPLGELSVTEVLLNAQPLAHSQGAWTS,not soluble
4,MGSDKIHHHHHHMTSPCPQILWNMTRKCNFSCHYCYFPHDNSPVSDSLPVAALLDFLRSRGGEWLVGLTGGEPFIYPYFVDICSAIAAEHRIGIDTNLSVTPVVKRFARHVPPDRVHDIYAALHIEERERRGAVDAFIRNYHTLAGRGFTVKVNYVVHPSLVQRFAADCEFFGRHGIPLTPRPFKGVYEGRRYPEGYGSTAAAIFTQHPEAGRKTVFNFHGVPCHGGHTFLRMEPDGTVLRCPGDKTVLGNVLSGTVQTESGPTPCRMHRCPCQGVEHILPDAAQQDFIEGVRAYVVGDLPAAQRAFTAAHSRAPAMTQAANNAGVAAFAAGDAQAAACCFARAAADDPVTPLYAANLKLARRAAQPSPPSGTENETPELSLAVNYQRTGN,not soluble
5,MDRLSYAIGDKAVLNNIRVQFQPGSVTALLGPNGAGKSTLLKALCQEIPSAQGSIKLGHCQLVDWPRAELAKSLAVLPQHASLTFPFTVDEVVAMGLYPLTLSQKEGQQLVTKWLAEVGVLHLARRSYPTLSGGEKQRVQLARVLTQLSQSPFPPILLLDEPTSALDLAQQHKVLALAKNLAHKHAYTVIVVLHDLNQAARYSDRVIVLKQGEIVSEGTPNDALSIDIIRQVWDYEPEFIPAPQGDYPLIF,not soluble
6,MVTKEQVVEALEGIVDPFLHKTLKETSAIKEVTVKPEKEHVSVKIAIVKTGTAEQMQLQSGIVKLVKELGAATVGLRFAEFTEEELAQFAPEQEEEQSESLLSPNSKTTFLAVASGKGGVGKSTVSVNLAVALARLGKKVGIIDADIYGFSVPDMMGIEKRPIVRGDKIIPVERLGVKVISMGFFVEDNAPVIWRGPMLGKMLNHFFTEVEWGDLDYLVLDLPPGTGDVALDVHSMLPSCKEIIVTTPHPTAAFVAARAGAMALRTEHSILGVVENMAYFESKVTGEKEYVFGKGGGDKLATELQTNVLGRIPLQQPDWNKEDFAPSVYEDTHTTGIIYSKIAETVIDKTAVTQKLEHHHHHH,soluble
7,MAKKTSSKGKLPPGPTPLPIIGNMLQIDVKDICKSFTNFSKVYGPVFTVYFGMNPIVVFHGYEAVKEALIDNGEEFSGRGNSPISQRITKGLGIISSNGKRWKEIRRFSLTTLRNFGMGKRSIEDRVQEEAHCLVEELRKTKASPCDPTFILGCAPCNVICSVVFQKRFDYKDQNFLTLMKRFNENFRILNSPWIQVCNNFPLLIDCFPGTHNKVLKNVALTRSYIREKVKEHQASLDVNNPRDFIDCFLIKMEQEKDNQKSEFNIENLVGTVADLFVAGTETTSTTLRYGLLLLLKHPEVTAKVQEEIDHVIGRHRSPCMQDRSHMPYTDAVVHEIQRYSDLVPTGVPHAVTTDTKFRNYLIPKGTTIMALLTSVLHDDKEFPNPNIFDPGHFLDKNGNFKKSDYFMPFSAGKRICAGEGLARMELFLFLTTILQNFNLKSVDDLKNLNTTAVTKGIVSLPPSYQICFIPVHHHH,soluble
8,GPGSDVFFSGYLNKLKGGDNHSWKKRYLQVQKGHFIMSDKESDTEGKALSLEHIQSVCPVPVSTAKREHVFALHTTSGKSMWFEAASLENMEEWIHAIQCGLGVA,soluble
9,MGSDKIHHHHHHMNIAFVINPVAGLGATLNLKGSDGLALEDVSKSISIVRSHRFLKKLDFNGLHFFVPSGCMGESEVSIYTKEYDVIYTPSSPTTRQDTINFVKSIESADLLVFVGGDGTARDILNSRNDLPVIGVPAGVKMYSSVFAISPERAADAVNQVAKGNYRIDKAEVVDIDEELYRKGILSVKRYGQLKVPEAQYIVENSKAEYDIAGAEDIAEYVIEHMADETYIIGPGNTCKTIEEEMGIKSNVLGFDILRNKKLIKEDASESEIYEACSDKCMLVISPVGGQNFLLGRGNKQISDRILERVGEENLIVVSSPSKAEHLKYVYIDTQIPLWSNGYVKVLVGYGRYKLVKVIR,not soluble
10,MGSDKIHHHHHHMEKMLYTAASGAVRILEAQSIRANNLANAETAGFKADLERVNAVPLVAQGNSLNTRVMAQTESSGFSQQSGVINPTGRSLDLAIRDRGLFSVAVDGAEAYTRSGAIETNAEGQLTIDGRPVLGIDGPIALPEYKDVFVGEDGTVSVLPAEGGIIEEVGRLKLVNPDFALMQKGQDGLLYRRDGQAVPQDEGVLVDSGFLESSNVQAVSELIASMDLSRQFEIQVKLMKSAEKLAEAGNRLLGNV,not soluble
11,MMCSTVISQLGFECHPIGKTLRIISPFTYCDDGEHVGAFIREVNGRYLVSDRCDALMNMEARGISLTKKRLDEIRQLLLKEGAELNARGEIIAWATEKDVGAITSNIIRAGILASTLSLDWYQPVQAEKFESMVIDYLYHTELRDALSLRENVYGLSGHQITVPVTIKTDIPKYVFTSSVKHGGSWNSAYSLLGKLIDLKASSEEYNNRFVVIDSEAIGDQMQQLSLLFHESSQVLPFSKRETWVKRLAA,not soluble
12,MSHFFADHDAPLSMLSVKTEYFPQLTDKEQKYAHFMSKASHAGSRVVMRQVSHESEPIFDLILAIHSKLNGKYPEDDITQKQQTGLYLEYVSQFLSNLGNFKSFGDTKFIPRCEVKFFKQLLELAKINPSSSPLTLSPVDVNHEFTSHHLFSTINELIDIGIYHVEEKAALLGFPSQGYTSAYYLGLPVTPEDMALLKEQLFAELAILPENTRINKVGENSFQIWVASENVKNQITETYPSGQITLSNAVTKVEFIFGDHSREMRLVASYLKEAQKFAANDTQKAMLQEYINHFVTGSSQAHKEAQKLWVKDISPVIETNIGFIETYREPSGIIGEFESLVAIQNKERTAKFSSLVNNAEEFISLLPWSKDYEKPIFNPPDFTSLEVLTFTGSGIPAGINIPNYDDVRLKIGFKNVSLGNILSAAAKSSSKHPPSFISQEDRPIFEKYQSDSFEVQVDIHELLGHGSGKLLTEFTDGFNFDKENPPLGLDGKPVSTYYKVGETWGSKFGQLAGPFEECRAEVIAMFLLTNKKILDIFGFHDVESQDKVIYAGYLQMARAGLLALEYWNPKTGKWGQPHMQARFSIMKTFMKHSTDKNFLKLEMNSTNDDFAIKLDKSLIKTAGHECVKDYLKHLHVYKCSGDVEQGSKYFIDRSTVTPDLASLRDIVLSKRLPRRQFIQSNSYIDDNNKVTLKEYDETPQGMLQSFLDREL,soluble
13,MAKKVAVLAVNPVNGCGLFQYLEAFFENGISYKVFAVSDTKEIKTNSGMVLIVDDVIANLKGHEDEFDALVFSCGDAVPVFQQYANQPYNVDLMEVIKTFGEKGKMMIGHCAGAMMFDFTGITKGKKVAVHPLAKPAIQNGIATDEKSEIDGNFFTAQDENTIWTMLPKVIEALKLEHHHHHH,soluble
14,MGEEKEIRIIVLEDGEHLESVIRKIEKGWIVRFKRGSSLLGKKVKVFTSICPGNSLEWSEGKDHLAVYCQVECKEAGSFRYWFKIEDSEERGSGYFLVMPELKINGKCLPLDGIACQTYLTKLLGPLSEWKERLEVAHQTGYNMIHLTPIHELGISNSSYSLSDHHSLIKTIQSQDQKFGFEDVQALVGDLERSWNILTVQDVVWNHAAKNATWLLEHPESAYNCLNSPHLRPAYVIDRVYHEFGKQIGEGVWEHRGVPPVVDNIHHVNAIEYLLRAEVLPKADLHEFYQVDLKAMVNLFEVFIKQSSGPTTNPLDGEDVEIEQDLECRRFGNTVDFERSARIFNRHRGDAKSEEERVEKCVRSFEEALNNKNLEAARESWEVILAGLAAVMGGITYERIADNGPKKGLVSPENPLTTDYFLHLEADLGWKSEEKFAYDPEKSKFLMAFNGWVMSSDPMKNFALKESQVYLRRELVCWGDSVKLNYGNKEADSPFLWQYMKEYTQQAARIFHGLRIDNAHGTPIHVAEKLLKTAREVRPDIYVFAELFTGSEHADNMFVNRLGISSLIREAQSAHDSHEQGRLVYRYGGDCVGAFKQKSARLAPKSIAHGLFLDQSHDNPSPIHTRSPFDILPTAAMLTMASCAVGSNRGYDELIRDHIHVVSEKRPYASWCRPDQVSRSQGIIEGRNLLNKLHTWLAEHGYSQVFVDQMNSDIVGITRHNPRTHETVVVVSHTSFSKNYIDWPGGLKHIPIGGVLENVIFEMKLKKVQEEWGTEDPDVLIGLKNYEMEIRENVNLDNGTMFKVHDGYIELTNFPTGSVVGFKIRPSDEATKAFNMIHNSITPEQSEFDSALSRLTYQSFPNLLFHCESEDYATIQQGGYDVPNFGKFVYCGLQGLVPVLEKIRDDNDLGHPLCQNLRDGTWICDYIVGRLAKFEKLGEVSEAIRKFFAPLDHVPYYLRPCYFELLVSYIYGKIRKEALKRMAPQISSSSALVRHLAISTLSFLGYIPGAGLAPIPTSLQIEDQYPSSLAAGLSHFAVGIWRNWGRDTFIALPGCLLSTGRFQEARQIILSFAGAIRHGLIPNLLAEGIGARYNCRDATWFWLVSIVKYVESAPNGVGILEDPVRRIYPNDDSVYGEGEVQQMLIETIYEALDKHFAGIDYRERSAGPQIDEQMRDEGFQVTAGVSRTTGFIYGGNRWNCGTWMDKMGSSERAGNKGEPATPRDGAAVELQGLAYRALKSLKNWKEQGVIQRSGVSDEWTWGFWAQKIRENFEKEFFVDKDSYAEFVNRREIIKDSVGSTLGFTDFQLRCNFGIALAVAPDLMDPKKAWKALDSAEVLLGPLGMKTLDPTDWAYNGYYNNDDDGTDKKTAKGWNYHQGPEWLFVAGYYLQARLRIGDILGGSEKQYAIRQVQERLGNAYKHIISSPWRSLPELTNADGEYCMQSCAAQAWSVGCLIEACVKLNTIEG,not soluble
15,MGSDKIHHHHHHMMGGFTVLIEMHCHTSEYSSCSGVAAVNLVRQVAAKNLQGIVLTDHHHLWEASELADVRRRAEVPDHFVILAGQEVTTPELGDVLVFGADATIERGTPLAEIRRRYPAAALVWAHPYRRGKRPTPEQLCHPLLDGVEIFNSNHTVRENSQGLQDWHRDRFTAIAGTDTHGENYAGLYPTQFDHAVKTIADLAAEIRHGRCRPFLKEIPRSGANSQVIEVTIGTKGADEVRERLIIKEIGTRHKWRSAERAFRIMGEIVGHGFDEGKFRVPRPIDEDEASMTLIEQGLRGKSLFDKLLTAEPEDGRAYLSLAAGWLARLHGCRLRITPRDEFLVREDERLARYLERFTAIGHRHTRKVQEILAAVAAEERRVVAEGSAYMVQGHGDFHPKNVFVGQDVMENRSTLFVAAIDFESSYVLPRAFDVGCFLAQFRNQFYHYGEIVNAYPEELFLEAYLRDSDQVEPDFLRQVELFRARTNMSIAAYLVKVGLGDSEDLWRVIVEAERSISNLSTGPAG,not soluble
